Assay [1] has as its target FKBP-CtermEYFP173 (human; Aequorea victoria) (UniProt P62942). Nature of the assay: cell-based or functional assay.
In assay [2] the target is FRB-CtermEYFP173 (human; Aequorea victoria) (UniProt P42345). Description: cell-based or functional assay.
The target in assay [3] is FKBP / FRB (FKBP binding part of FRAP) interaction (Homo sapiens, UniProt P42345+P62942). Description: Rapamycin-induced E[F64L]YFP fragment complementation (EYFP fluorescence) in stably transfected CHO-hIR cells. The class given is cell-based. The conditions noted are these: CHO-hIR [PS1767+PS1768], 1 μM rapamycin.
Experimental: Probes were co-transfected in pairs into CHO-hIR cells (supra), PS1769 with PS1771 and PS1767 with PS1768, using the transfection agent FuGENE™ 6 (Boehringer Mannheim Corp, USA) according to the method recommended by the suppliers. Cells were cultured in growth medium (HAM's F12 nutrient mix with Glutamax-1, 10% foetal bovine serum (FBS), 100 μg penicillin-streptomycin mixture ml^−1 (GibcoBRL, supplied by Life Technologies, Denmark)). Transfected cells were cultured in this medium, with the addition of two selection agents appropriate to the plasmids being used, being 1 mg/ml zeocin plus 0.5 mg/mlG418 sulphate. […]
After 10 to 12 days culture in the continuous presence of the selection agents, the resulting cell lines were judged to be stably transfected. For fluorescence microscopy, aliquots of cells were transferred to Lab-Tek chambered cover glasses (Nalge Nunc International, Naperville USA) and allowed to adhere for at least 24 hours to reach about 80% confluence. Images were routinely collected using a Nikon Diaphot 300 inverted fluorescence microscope (Nikon Corp., Tokyo, Japan) using ×20 (dry) and/or ×40 (oil immersion) objectives and coupled to a Orca ER charged coupled device (CCD) camera (Hammamatsu Photonics K. K., Hammamatsu City, Japan). […]
This is easily accomplished through fluorescence activated cell sorting (FACS) methods. […]

Three compounds from US20030219717A1, “Fluorophore complementation products” (priority 2002, published 2003) can be followed below.

FKBP-CtermEYFP173 (human; Aequorea victoria), sequence (P62942 other isoform, or with tags, fused parts or gaps, form in doubt): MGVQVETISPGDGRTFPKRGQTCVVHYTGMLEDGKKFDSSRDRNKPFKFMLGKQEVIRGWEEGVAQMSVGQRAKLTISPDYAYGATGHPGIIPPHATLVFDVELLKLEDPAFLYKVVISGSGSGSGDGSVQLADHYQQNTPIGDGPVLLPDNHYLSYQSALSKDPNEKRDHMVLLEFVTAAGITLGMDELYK

In assay [1], “NtermE[F64L]YFP172-FRB (from UniProt P42345 2025-2114)” showed an EC50 of FK506 against 100 nM rapamycin, EYFP fluorescence/cell, 'mid to low-green' FACS group of 1.2 µM; an EC50 of rapamycin for EYFP fluorescence, 'black' FACS group, 7 and 30 hours of 0.1 µM; an EC50 of rapamycin for EYFP fluorescence, 'medium to low-green' FACS group, 7 and 30 hours of 0.25 µM; a half-time for development of fluorescence after 3 uM rapamycin of 5 h. In assay [1], this compound had an increase in EYFP fluorescence over the unstimulated value, 'black' FACS group above 20 fold; an increase in EYFP fluorescence over the unstimulated value, 'medium to low-green' FACS group above 20 fold; a proportion of cells with appreciable EYFP fluorescence before rapamycin (t=0) below 5%; a proportion of cells with significantly greater EYFP fluorescence 4 hours after 1 uM rapamycin of 40%. This compound yielded a proportion of responding cells 16 hours after 1 uM rapamycin in assay [1] of 70%.

In assay [2], “NtermE[F64L]YFP172-FKBP (from UniProt P62942 1-108)” gave an EC50 of FK506 against 100 nM rapamycin, EYFP fluorescence/cell, 'black' FACS group of 1.2 µM.

For `CO[C@H]1C[C@@H]2CC[C@@H](C)[C@@](O)(O2)C(=O)C(=O)N2CCCC[C@H]2C(=O)O[C@H]([C@H](C)C[C@@H]2CC[C@@H](O)[C@H](OC)C2)CC(=O)[C@H](C)/C=C(\C)[C@@H](O)[C@@H](OC)C(=O)[C@H](C)C[C@H](C)/C=C/C=C/C=C/1C` [rapamycin], in assay [3] (after 4 hours), the “Proportion of cells with significantly greater EYFP fluorescence” value is given as “approximately 40%”. Besides, the “Proportion of the cell population encompassed by the EYFP fluorescence response” value in assay [3] (after 16 hours) is reported as “approximately 70%”.
